Results reported in paper PMC3589417.
Each block holds one substance with its values, some of them ahead of it.

Target: 14-3-3ε (UniProt P62258)
Assay: anti-FLAG co-IP of HA-TAK1, immunoblot
Settings: reference: wild type

Chain of UniProt P62258 (P62258 whole entry, looked up): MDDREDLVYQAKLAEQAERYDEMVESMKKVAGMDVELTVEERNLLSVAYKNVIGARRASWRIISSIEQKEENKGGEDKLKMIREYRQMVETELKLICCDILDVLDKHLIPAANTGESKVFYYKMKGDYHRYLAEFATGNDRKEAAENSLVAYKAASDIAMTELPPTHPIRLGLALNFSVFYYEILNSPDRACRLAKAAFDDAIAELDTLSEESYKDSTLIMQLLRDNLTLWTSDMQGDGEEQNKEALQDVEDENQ

- binding against the reference (sites T184): weaker
Substance: TAK1 (MAP3K7) (from UniProt O43318-2) T184A

- binding against the reference (sites S192): weaker
Substance: TAK1 (MAP3K7) (from UniProt O43318-2) S192A

- binding against the reference (sites T187): weaker
Substance: TAK1 (MAP3K7) (from UniProt O43318-2) T187A
